The text below walks through data of patent publication US20120128635.

The test system of data set [1] is ZFN SBS#11004 (N2 pair) (synthetic construct). As to the kind of experiment: cell_activity. Particulars: Cel-I assay in K562 day 3, as pair with SBS#9802; 34-47% in LP mouse liver in vivo (p174).
Data set [2] concerns ZFN SBS#9802 (N2 pair) (synthetic construct). As to the kind of experiment: cell_activity. Particulars: Cel-I assay in K562 day 3, as pair with SBS#11004; 34-47% in LP mouse liver in vivo (p174).

Regarding “GTACTAGGGGTATGGGGATAAACCAGAC (double strand) [hF9 intron 1 target of SBS#11004]”, the activity (% alleles cleaved) in data set [1] came out at 30.

In turn, “TGACACAGTACCTGGCACCATAGTTGTA (double strand) [hF9 intron 1 target of SBS#9802]” registered an activity (% alleles cleaved) in data set [2] of 30.
